Results taken from the supplement of paper PMC9170038.

Test system: K4 kissing-loop RNA reporter
Assay: apparent KD of K4 kissing-loop reporter; higher = weaker reporter binding
Conditions: Eterna round: R107
Procedure: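 RNA-MaP round R107: designed RNA switches with theophylline, tryptophan, arginine or FMN aptamers are transcribed on-chip within common flanks. They are titrated with a labelled K4 kissing-loop RNA reporter in RNA-MaP buffer (100 mM Tris pH 7.5, 80 mM KCl, 4 mM MgCl2), without ligand or with the indicated ligand. Median apparent KD per design.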

[1] = input ligand: theophylline 20 uM
[2] = input ligand: tryptophan 2.4 mM
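Note: bound reporter read as fluorescence of individual clusters on recovered sequencing chips by microscopy, with normalized cluster intensities fitted with a binding model.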

Sequence	apparent KD of K4 kissing-loop reporter (input ligand: FMN 200 uM) [nM]	apparent KD of K4 kissing-loop reporter (input ligand: arginine 13.2 mM) [nM]	apparent KD of K4 kissing-loop reporter (input ligand: none) [nM]	apparent KD of K4 kissing-loop reporter [1] [nM]	apparent KD of K4 kissing-loop reporter [2] [nM]
AAUAUAUAGUGAAGGAGCGCGUAUAGCAGUGAUGUUGCUUACUUAUUAUUAUAUUUUUUGACGCAGGUAGGUCGCACUAUAUAUA [JR_ExcArginiB_Sub021]	242	181	268	227	215
GUAUCGCUAGGAGGAUAUUUCAAAUAACAAAUAAAUGGUUAUACGGAGUGAUGUUCCGAUUUACGGAAAGAAGGCCUAGUGAUAC [FMN B 4]	112	203	210	218	203
UUAGCAGUAUACUGCAAGACCUAUACUGAUACCAGAGUCAAUUGACUCCCUUGGCAGCGGAUCGAGUGAUGUUCGUAAGGUCAUU [AK4.2 SS Theophylline A]	743	647	955	792	685
CAUAUUUCGGCGGCCGCCACUGACCAUAGCCUUCGAUGGCCAGUGAUGUUGGCCUCUGGCUCUAACAGGACCGGGCCGAAUUGUG [Uslaxe]	239	137	198	145	116
UAGGUGCCGAACCAGUGAUGUUGGAGUCAUCGAGGACCGGUACGGCCGCCACUCGGCAGCGCCGGCGCGAUUAAUUGCGGAGACA [theeternabot_sameState_KL_Trp_A_7]	689	390	596	470	698
GGCCCGGGCGCGGCCGCCACUCCCUCGUACCGCAAGGUAUGAUACCGAGUGAUGUUCGGUUGGAGGAGGACCGGGCGCCCGGGCC [#2 Exclusion - Tryptophan B Attempt #5 (HarryS)]	122	101	108	77.4	91.1
ACCAUCAAAGAUGGCCAGGACUCCGCUGAUACCAGAGUGAAAACACUCCCUUGGCAGCAGGUGAGUGAUGUUCACAAGUCCUGGA [Omel KL Theo A SS B v5]	1160	693	1860	981	857
GGCAUGGUGGCGCGGCUGCCAUGCGCUUGGGAGGAUAUGUUUCGUGACAGAAGGCCCAGUGAUGUUGGGUCUGUUCAAAAGGACU [Onrabe]	447	149	133	137	113
UUACCAAGUGAUGUUUGGAAAUAUCCUAGGCAGGAUAUGCGGAAACGCAGAAGGGCCACCUGAUAGUGAAGGAAACUUCGCUAUC [Ex FMN A 1]	168	141	152	130	151
UUUUAAUGCAGUGAUGUUGCAAAUAAAACAGAGGAUAUGCAUGGAAGCAGAAGGCUGAUAUGUCGUACUUCGACAUAUUAUAUUU [JR_SSFMNA_Sub012]	89.2	125	91.4	121	81
AGGAGCGUGGGAUGCAAAUCGCACGCUCCUCGAGGACCGGUACGGCCGCCACUCGCUCGCGCCGAGUGAUGUUCGGCCGGCGAAC [#2 Same State - Tryptophan A Attempt #14 (HarryS)]	221	232	247	266	407
AAUUAGCCGUAAGAAUAGUGAUGUUAUUCACGAGGACCGGUACGGCCGCCACUCGAUAUUGGAAUAUUGAAUUUUUUAUUCUAAA [JR_SSTryptoA_Sub009]	524	474	552	577	291
AUGAGGAACAGUGAUCCUACUCCAUGGGAAGGAGCGUAGGAUACUACAGGUAGGUCGCCCAGUGAUGUUGGGCGCGUGUUCUUGG [Ermaar]	116	114	115	161	113
GCCGUACGCAUGGAUACCAGCUAGACCGAGUGAUGUUCAGGUCUGAAUGCCGGUAUCAAGAGCCCUUGGCAGCCAUGCGUACGGC	382	265	301	329	292
GUAGUGAUGUUACGAGUAUUCCAUCGUAGAGAGGAUAUGGUUCCUUCCAGAAGGUUCUGAGAAUUAAAAUUUGAUAAAAUGAGGG [Exclusion FMN A GF 2]	304	251	390	392	252
UGACUGGACUGAAGGAGCGUUCAGGUAGGUCGCUAUGGAGUGAUGUUCCAUAGAAGGAGCGAACAGGUAGGUCGCAGUCUAGUCU [ArgBS 30 #DoubleAptamer #SwitchBubble]	181	100	111	167	120
GGCAGUGAUGUUGCCUAAGCAACGCAUGCAGAGGAUAUUCGUUCGGGAAGAAGGCUGCAGCGUUCUCUCGUCAGUGAUGUUGGCG [Same State FMN A GF 24]	140	115	127	130	114
